First the molecules themselves.
B1: TL1_(ABS2) (domain or fragment)
chain: VIKPTQYKPVPDEEPNSTDVEETLERIKNNDPKLEEVNLNNIRNIPIPTLKAYAEALKENSYVKKFALANTRADDHVAFAIAIMLKANKTITSLNLDSNHITGKGILAIFRALLQNNTLTELRFHNQRHICGGKTEMEIAKLLKENTTLLKLGYHFELAGPRMTVTNLLSRNMDKQRQKRLQEQRQAQ
notes: human tropomodulin 1 residues 164-229; human leiomodin 1 residues 365-486; The junction was made with a silent NruI site; cloned in vector pTYB1; also called Tmod1-Lmod1 ABS2 hybrid construct
B2: TL2_(ABS2) (domain or fragment)
chain: VIKPTQYKPVPDEEPNSTDVEETLERIKNNDPKLEEVNLNNIRNIPIPTLKAYAEALKENSYVKKFSLANTHADDSAAMAIAEMLKVNEHITNVNVESNFITGKGILAIMRALQHNTVLTELRFHNQRHIMGSQVEMEIVKLLKENTTLLRLGYHFELPGPRMSMTSILTRNMDKQRQKRLQEQKQQE
notes: human tropomodulin 1 residues 164-229; The junction was made with a silent NruI site; cloned in vector pTYB1; also called Tmod1-Lmod2 ABS2 hybrid construct
B3: Lmod2_(ABS2) (domain or fragment)
chain: NGRNTESPAAIHPCGNPTVIEDALDKIKSNDPDTTEVNLNNIENITTQTLTRFAEALKDNTVVKTFSLANTHADDSAAMAIAEMLKVNEHITNVNVESNFITGKGILAIMRALQHNTVLTELRFHNQRHIMGSQVEMEIVKLLKENTTLLRLGYHFELPGPRMSMTSILTRNMDKQRQKRLQEQKQQE
notes: the limits 180-367 are printed for the construct of the same name made for cell expression; Cloned in vector pTYB1; also called isolated ABS2 of Lmod2

The target of this assay is actin (UniProt P68135 1-377). Kind of assay: ITC; Tmod or Lmod construct in the syringe titrated into LatB-actin in the cell (LatB:actin 1.2:1); 20 mM HEPES pH 7.5, 100 mM NaCl, 0.2 mM ATP, 1 mM DTT; temperature and concentrations listed in the figures. The note with it: both partners purified. (ITC needs no label: the signal is the heat of the interaction.)
Usually stoichiometry N stands for the number of molecules, sites or subunits per partner or assembly. Regarding B1, the “stoichiometry N” value worked out at 2.

With B2, the “stoichiometry N” value is 2.

For the molecule B3, the “stoichiometry N” value came to 2.

The values are drawn from PMC4571291, “How Leiomodin and Tropomodulin use a common fold for different actin assembly functions” (Nature Communications, 2015).
